Source: publication PMC5739345, “Identification of iridoid synthases from Nepeta species: Iridoid cyclization does not determine nepetalactone stereochemistry” (Phytochemistry, 2018)

Legend:
[1] = substrate: C/C(C=O)=C\CC/C(C)=C/C=O; assay: purified protein; type: biochemical, Nepeta racemosa; conditions: 75 μM NADPH, 200 mM MOPS pH 7.0, 100 mM NaCl, 1-1.4% THF, 25 °C, 5 nM enzyme
[2] = substrate: NC(=O)C1=CN([C@@H]2O[C@H](COP(=O)(O)OP(=O)(O)OC[C@H]3O[C@@H](n4cnc5c(N)ncnc54)[C@H](OP(=O)(O)O)[C@@H]3O)[C@@H](O)[C@H]2O)C=CC1; assay: purified protein; type: biochemical, Nepeta racemosa; conditions: 50 μM 8-oxogeranial, 200 mM MOPS pH 7.0, 100 mM NaCl, 1-1.4% THF, 25 °C, 5 nM enzyme, varied: cofactor

B1: NmISY2 (Nepeta racemosa) (protein)
chain: MSLSWWRAGAAKKRMDDDESLLVKQQQQQCVALIVGVTGLVGNSLAEMLPLPDTPGGPWKVYGVARRARPSWNEDQPMTYISCDVSNTGEVEAKLSPLSDVTHIFYATWTSRSTEEENCEANGKMLKNVLDAMIPNCPNLKHICLQTGRFHYVASVVDWKINGSHDTPLTEDLPRLKTNNFYYTQEDILLEEVKRKEGLTWSVHRPGTIFGFSPYSMMNLVGTLCVYAAICKQEGAVLRFPGCKGAWDGHSDCADADLIAEQQIWAALDPHAKNQAFNVSNGDLFKWKHLWKVLADQFGVECGDYEEGQQLRLQDVMKDKGPVWDKIVAENGLSNTKLEDVGKWWFSDTILWNECRLDSMNKSKEHGFLGFRNSKNCFLYWIHKVKAYNLVPSTYT
notes: N-terminal His-tag (pOPINF), E. coli soluBL21 (DE3), Ni-NTA and gel filtration; not fully homogeneous; dimer fraction; Phe at Lys146, Ala at Gly150 positions (natural)
Km [1]: 7.3 ± 0.7 µM | kcat [1]: 0.60 ± 0.02 s⁻¹ | Km [2]: 26.2 ± 5.1 µM | kcat [2]: 0.84 ± 0.06 s⁻¹
